Data from PMC10545799.

Experiments:
[1] = target: dsc-Agg5A (donor strand complemented major pilin subunit Agg5A of AAF/V) (enteroaggregative E. coli); test: SAXS; engineered subunit samples (monomer fractions of the gel filtration) in solution, 10 °C, dilutions 1:1 and 1:2; molecular weight and aggregation number from Guinier analysis; self-association
[2] = target: dsc-Agg5AB (chimeric donor strand complemented construct of minor pilin subunit Agg3B and major pilin subunit Agg5A) (enteroaggregative E. coli); test: as above

| Substance | stoichiometry N [1] | stoichiometry N [2] |
| --- | --- | --- |
| dsc-Agg5A (donor strand complemented major pilin subunit Agg5A of AAF/V) (domain or fragment) | 2 | – |
| dsc-Agg5AB (chimeric donor strand complemented construct of minor pilin subunit Agg3B and major pilin subunit Agg5A) | – | 6.8 |
